For one substance, Kd results are on record in paper doi:10.1101/2023.06.21.545551.

This assay addresses MYC(352–437):MAX(22–102) heterodimer (human) (UniProt P61244). The assay can be described thus: NMR titration.

MYC(352–437):MAX(22–102) heterodimer (human), sequence (P61244 whole entry, looked up, tested part not stated, one chain of several): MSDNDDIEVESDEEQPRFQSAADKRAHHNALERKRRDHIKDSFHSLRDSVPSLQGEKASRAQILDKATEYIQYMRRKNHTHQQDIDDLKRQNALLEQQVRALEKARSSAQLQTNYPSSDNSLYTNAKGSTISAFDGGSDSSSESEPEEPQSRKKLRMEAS

For orientation: Kd means the free concentration of one partner at which half of the binding sites on the other are occupied at equilibrium, for simple one-to-one binding. A high value points to lower affinity. In turn, MYC(11–34), Mb0 peptide yielded a Kd of 7 µM.
